The data set concerns COc1cc2c(c(OC)c1OC)-c1ccc(OC)c(=O)cc1[C@@H](NC(C)=O)CC2. Put plainly: TP_TRANSPORTER: uptake in membranes from CEM/VLB100 cells. The data set is classed as functional, cell membranes, Membrane.

As usually defined, the Km is the concentration of substrate that gives half-maximal velocity.

As to “ATP-dependent translocase ABCB1 (Homo sapiens)”, the Km turned out to be 1.33 µM.

Values taken from ChEMBL document CHEMBL2074321, “A continuous fluorescence assay for the study of P-glycoprotein-mediated drug efflux using inside-out membrane vesicles” (Anal Biochem, 1999).
